T1: Fis (Vibrio parahaemolyticus RIMD2210633, UniProt P64128 1-98)
T1 sequence: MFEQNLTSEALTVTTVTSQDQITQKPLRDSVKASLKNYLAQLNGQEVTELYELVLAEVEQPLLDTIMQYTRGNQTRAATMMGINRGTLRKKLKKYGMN

T2: Fis (Vibrio parahaemolyticus RIMD2210633) (UniProt P64128)
T2 sequence: T1 sequence

B1: ParaB_mut (probe 3) (dsDNA)
DNA 1: TTTTTATCACTCCTCGTAGAAACCCTATTTATGGGATAACCCAC
DNA 2: GTGGGTTATCCCATAAATAGGGTTTCTACGAGGAGTGATAAAAA
B2: ParaB_WT (probe 3) (dsDNA)
DNA 1: TTTTTGTCCATAAACTTAGCAACCCTATTTATGGGATAACCCAC
DNA 2: GTGGGTTATCCCATAAATAGGGTTGCTAAGTTTATGGACAAAAA
B3: Qrr3coding_mut (dsDNA)
DNA 1: CCTTCTTAAGCCGAGAGTATCTTAGATAAATGACGTTGTTAGTGAA
DNA 2: TTCACTAACAACGTCATTTATCTAAGATACTCTCGGCTTAAGAAGG

The molecules below were run against T1, Fis (assay: EMSA; 10 mM Tris, 150 mM KCl, 0.1 mM DTT, 0.1 mM EDTA, 5% PEG, pH 7.4, 20 min at room temperature; 30 ng DNA; 6% native gel in 1x TAE at 4 C). Conditions: protein: recombinant; tags: 6xHis-MBP fusion (pMAL-c5x) removed by TEV cleavage; chain copies: 2; blunt.

Question: Does B1 bind?
Answer: Result: no binding

Question: Does B2 bind?
Answer: Result: binds

Question: Does B3 bind?
Answer: Result: no binding

The molecules below were run against T2, Fis (Vibrio parahaemolyticus RIMD2210633) (assay: EMSA). Conditions: 10 mM Tris, 150 mM KCl, 0.1 mM DTT, 0.1 mM EDTA, 5% PEG, pH 7.4, 20 min at room temperature; 30 ng DNA; 6% native gel in 1x TAE at 4 C.

Question: Which binding does the source give for “GCGTTTATCATAAAAATAGTCAATTTAATGAATATTTTAATATGTATTCAGTTGTTTATTGGTTGGAGGCGAAACTGTTGCTTATGTCATCAAATAAGCTAAAAAAGTGGAACTAAAGTCACTTAATGGCAGAGTAAAAAATTAAAG (double strand) [PscrABC probe 1]” here?
Answer: Its binding is “binds”.

Question: Which binding does the source give for “CTTAATAATAGTTTTATCTATAAACAAACAGTGAGCTTTGTTATAAATTCATTAAAAATTTAACTTTGTATTAATTAGAAAATTCAGCGTCATATTTGTTCAACTGCGACTATTCTTTTTATAACCAAGTAATCTC (double strand) [PscrABC probe 2]” here?
Answer: The binding was “binds”.

Question: Which binding does the source give for “TATGTTAAGTTTCATAAAATGGCTTGATGTTTAAATGAACAGTTAATTTTTAGACCATATATAGCGAGATCTAAAGTAGTTCAAACAAATGTACGGTCTAACTCTTAGCTGCGAGAACAAACCACTTGGATATACGCTC (double strand) [PscrABC probe 3]” here?
Answer: Its binding is “binds”.

Question: How did the binding turn out when “CCATCCACTGGTAGAGGTGAGTGTTCGCTGTACATATTTGTGCATCCTTGACCATTTGTTAGTGATAAAAATCACAGCGGAAAAATGTAGCAATTTTGTCCATTCATTTAGCTACAGAGGCTATGAAGCAGCTCTCAA (double strand) [ParaB probe 1]” was run?
Answer: The binding was “binds”.

Question: For “TCACGCGAATACGCACTTTAATACGTATGTCTAATGTTTATACGCGACCACTTTCGCCTAAAAGTTTAGGTATAGTTGATAATTAGTCGACTTAAGCAATCTATGTACCAAAATCAACGCCAAAATAATGACTCAAAGCTAAATAACAGCACAATCCATTG (double strand) [PflhA]”, which binding is on record?
Answer: Its binding is “binds”.

Question: For “AATCTACTTGTTGTTATAGCCAGAGCTGGTGGGTTATCCCATAAATAGGGTTGCTAAGTTTATGGACAAAAACGTCACTGGGTGTTTTTTGTGTCCTTTTTAACACCTTTATATATTGCTCAAAAATTAAGTGTTTTCGATCATGATTAACG (double strand) [ParaB probe 2]”, which binding is on record?
Answer: Its binding is “binds”.

Question: “CATAGGTTCACCTTTAAGAATTATTGTTTGTGTTATGGTTCACATTTATTTCAGTTACCGGTAACATGTTACCGATAACATGAATAAGATAAACCCATATTTTAAAGTGAATTCAAAAATTGAGATCACGCGCAAATT (double strand) [PgntK probe 1]” was tested. Which binding did it give?
Answer: The binding was “binds”.

Question: Which binding does the source give for “CCATTTGAAAAGGGATTGAGTGTTGTTGATAGAGTTTTTTTTACTGGAGATTTGATACGTTAACTGGATTTTTGTAACATTAAAATGGAAGTGTGATTTTGCTCAATAGCACAAAAGTCCAGTCCGGTGT (double strand) [VPA1424 regulatory region (negative control)]” here?
Answer: The binding was “binds more weakly”.

Question: Which binding does the source give for “AGCCTGACGTTGGTAAGGTGCGCTAAAACACCAAAATATGCCGAGTTAAAAGATACCAAAAATCGATGTACTTCCTCTGTAGGAATAGTCCTATTTACATAGCAGGAAACACCTAAAGCAGCGCTTTATTAACGGCTTAATCAACACGTCACATTCCTAAAATGAATTAAATATTTTCAGCTTTTTAGTCGCCTTGTCTTATAGGGAAACACTAGATGTTTTCGAGAGGAAGGCGGAACACATA (double strand) [PlafB]” here?
Answer: The binding was “binds”.

Question: Which binding does the source give for “GAGCTCTCCTAGGTACCAACCGTGAAATCCATTTACTGAGGTATTTTTCCTCATTAATTAGCAGTATAGGGTAAAAATATGAAAGCTAATGGATAATCATAAAGTAGTAGTTGGTTTTTTGCTGAGAAAGTGATTAGTAGCAATGTAACAAGTGGCATATTTGCATGCTATTGCATTTTGCAAATGCAATTTGCGAAAGTGCTGGTTAATAATGCGTCGATATGCACCTGGATCTATTAAAAAACGGCTTTTTTAAAGTTGGCACGCATCGTGCTTTATCTAGAG (double strand) [Pqrr4]” here?
Answer: Its binding is “binds”.
